Legend:
Nav channels = conditions: peptide sequences derived from the LITFILKK motif of Navβ4 cytoplasmic tail; ref Grieco, Malhotra, Chen, Isom, & Raman, 2005; White et al., 2019; cited from earlier work
Description: The presence of other accessory proteins that directly interact with Nav1.6 in the native system may contribute to the reported activity of FLPK. A critical determinant required for repetitive firing in MSN and Purkinje neurons is the Navβ4 accessory subunit (Ji et al., 2017; White et al., 2019).

[1] = biological target: T1, FGF14-1b (aa 64-252), purified recombinant (human) (UniProt Q92915); experiment: SPR; Biacore T100, 25°C; FGF14 (RU 16,000), FGF14 V160A (RU 18,000) or Nav1.6 C-tail (RU 12,000) amine-coupled on CM5 chip; peptides 1-100 µM in HBS-P+ at 50 µl/min, 180 s association, 180 s dissociation; 1:1 binding model
T1 sequence: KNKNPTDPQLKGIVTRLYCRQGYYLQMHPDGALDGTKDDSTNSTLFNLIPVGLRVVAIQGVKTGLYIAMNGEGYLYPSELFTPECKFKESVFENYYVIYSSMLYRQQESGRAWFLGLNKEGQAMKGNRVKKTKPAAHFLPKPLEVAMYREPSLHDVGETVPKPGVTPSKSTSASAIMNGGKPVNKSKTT

In the case of LITFILKK, the “effect on fast inactivation and Na^+ currents” value (Nav channels) is listed as “prevent stable fast inactivation and generate resurgent and persistent Na^+ currents through a voltage‐dependent open‐channel block”.

FLPK [FLPK tetrapeptide] showed a koff [1] of 0.000431 s⁻¹ and a kon [1] of 84.4 M⁻¹ s⁻¹.

Source: PMC7363588, “Mapping of the FGF14:Nav1.6 complex interface reveals FLPK as a functionally active peptide modulating excitability” (Physiological Reports, 2020)
